{"source": "paper PMC11467436", "about": "“Novel mechanisms of MITF regulation identified in a mouse suppressor screen”", "binders": {"B1": {"name": "M-box smFRET probe (dsDNA)", "DNA 1": "GAGATCATGTGTTGA", "DNA 2": "TCAACACATGATCTC", "modifications": "5' C6-amino linker on both strands"}}, "settings_in_all_cases": "protein: recombinant; tags: none (His6-SUMO removed by ULP-1); unlabeled; chain copies: 2; label: Cy3B (5' positive strand); CF660R (5' negative strand); blunt", "key": {"[1]": {"target": "T1, hMITF-WT (Homo sapiens, UniProt O75030-9 1-419)", "T1 sequence (O75030 other isoform, or with tags, fused parts or gaps)": "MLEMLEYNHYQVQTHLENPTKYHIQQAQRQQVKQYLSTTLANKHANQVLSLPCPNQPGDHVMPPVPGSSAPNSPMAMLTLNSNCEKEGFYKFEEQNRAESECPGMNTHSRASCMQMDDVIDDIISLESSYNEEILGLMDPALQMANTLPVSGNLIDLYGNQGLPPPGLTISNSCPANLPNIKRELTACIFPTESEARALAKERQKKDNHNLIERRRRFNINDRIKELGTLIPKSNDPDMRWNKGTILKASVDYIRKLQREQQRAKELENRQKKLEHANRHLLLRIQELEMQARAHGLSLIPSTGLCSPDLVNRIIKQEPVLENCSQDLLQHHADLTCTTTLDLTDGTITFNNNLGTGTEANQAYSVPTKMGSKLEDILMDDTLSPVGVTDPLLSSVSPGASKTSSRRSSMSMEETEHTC", "experiment": "FCS; 300 mM KCl; Single-molecule: 0.5 nM DNA, 10 mM Tris pH 7.4, 0.1 mM EDTA, 165 or 300 mM KCl, 1 mM MgCl2, 143 mM 2-ME, 0.01% Tween-20, 0.1 mg/mL BSA. EMSA: 10 mM Hepes pH 7.9, 50 mM NaCl, 5 mM MgCl2, 0.1 mM EDTA, 2 mM DTT, 5% ethylene glycol, 5% glycerol, BSA, 30 min on ice"}, "[2]": {"target": "T2, hMITF-sp (Homo sapiens, UniProt O75030-10 1-413)", "T2 sequence (O75030 other isoform, or with tags, fused parts or gaps)": "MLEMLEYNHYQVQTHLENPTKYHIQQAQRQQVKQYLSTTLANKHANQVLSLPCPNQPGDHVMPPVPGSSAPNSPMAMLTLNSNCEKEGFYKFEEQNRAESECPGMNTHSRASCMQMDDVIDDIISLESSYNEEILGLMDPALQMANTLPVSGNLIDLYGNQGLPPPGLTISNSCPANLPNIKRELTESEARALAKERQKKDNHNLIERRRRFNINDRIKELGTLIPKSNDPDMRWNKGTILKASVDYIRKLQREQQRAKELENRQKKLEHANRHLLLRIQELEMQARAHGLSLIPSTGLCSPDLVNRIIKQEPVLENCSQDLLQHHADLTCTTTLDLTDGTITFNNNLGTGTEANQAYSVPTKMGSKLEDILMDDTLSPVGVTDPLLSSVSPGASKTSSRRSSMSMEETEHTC", "experiment": "FCS; 300 mM KCl; Single-molecule: 0.5 nM DNA, 10 mM Tris pH 7.4, 0.1 mM EDTA, 165 or 300 mM KCl, 1 mM MgCl2, 143 mM 2-ME, 0.01% Tween-20, 0.1 mg/mL BSA. EMSA: 10 mM Hepes pH 7.9, 50 mM NaCl, 5 mM MgCl2, 0.1 mM EDTA, 2 mM DTT, 5% ethylene glycol, 5% glycerol, BSA, 30 min on ice"}, "[3]": {"target": "T3, hMITF-sl (Homo sapiens, UniProt O75030-10 1-309)", "T3 sequence (O75030 other isoform, or with tags, fused parts or gaps)": "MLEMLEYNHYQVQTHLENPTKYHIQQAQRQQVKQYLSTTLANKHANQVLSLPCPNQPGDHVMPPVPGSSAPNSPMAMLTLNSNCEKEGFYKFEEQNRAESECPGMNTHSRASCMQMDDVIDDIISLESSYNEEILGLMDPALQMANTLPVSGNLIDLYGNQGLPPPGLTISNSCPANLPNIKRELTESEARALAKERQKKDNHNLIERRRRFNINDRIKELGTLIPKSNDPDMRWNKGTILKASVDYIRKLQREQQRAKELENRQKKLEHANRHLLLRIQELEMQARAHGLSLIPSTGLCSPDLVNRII", "experiment": "FCS; 300 mM KCl; Single-molecule: 0.5 nM DNA, 10 mM Tris pH 7.4, 0.1 mM EDTA, 165 or 300 mM KCl, 1 mM MgCl2, 143 mM 2-ME, 0.01% Tween-20, 0.1 mg/mL BSA. EMSA: 10 mM Hepes pH 7.9, 50 mM NaCl, 5 mM MgCl2, 0.1 mM EDTA, 2 mM DTT, 5% ethylene glycol, 5% glycerol, BSA, 30 min on ice"}, "[4]": {"target": "T1, hMITF-WT", "experiment": "smFRET; 300 mM KCl; Single-molecule: 0.5 nM DNA, 10 mM Tris pH 7.4, 0.1 mM EDTA, 165 or 300 mM KCl, 1 mM MgCl2, 143 mM 2-ME, 0.01% Tween-20, 0.1 mg/mL BSA. EMSA: 10 mM Hepes pH 7.9, 50 mM NaCl, 5 mM MgCl2, 0.1 mM EDTA, 2 mM DTT, 5% ethylene glycol, 5% glycerol, BSA, 30 min on ice"}, "[5]": {"target": "T2, hMITF-sp", "experiment": "smFRET; 300 mM KCl; Single-molecule: 0.5 nM DNA, 10 mM Tris pH 7.4, 0.1 mM EDTA, 165 or 300 mM KCl, 1 mM MgCl2, 143 mM 2-ME, 0.01% Tween-20, 0.1 mg/mL BSA. EMSA: 10 mM Hepes pH 7.9, 50 mM NaCl, 5 mM MgCl2, 0.1 mM EDTA, 2 mM DTT, 5% ethylene glycol, 5% glycerol, BSA, 30 min on ice"}, "[6]": {"target": "T3, hMITF-sl", "experiment": "smFRET; 300 mM KCl; Single-molecule: 0.5 nM DNA, 10 mM Tris pH 7.4, 0.1 mM EDTA, 165 or 300 mM KCl, 1 mM MgCl2, 143 mM 2-ME, 0.01% Tween-20, 0.1 mg/mL BSA. EMSA: 10 mM Hepes pH 7.9, 50 mM NaCl, 5 mM MgCl2, 0.1 mM EDTA, 2 mM DTT, 5% ethylene glycol, 5% glycerol, BSA, 30 min on ice"}, "[7]": {"target": "T1, hMITF-WT", "experiment": "single-molecule fluorescence anisotropy; 300 mM KCl; Single-molecule: 0.5 nM DNA, 10 mM Tris pH 7.4, 0.1 mM EDTA, 165 or 300 mM KCl, 1 mM MgCl2, 143 mM 2-ME, 0.01% Tween-20, 0.1 mg/mL BSA. EMSA: 10 mM Hepes pH 7.9, 50 mM NaCl, 5 mM MgCl2, 0.1 mM EDTA, 2 mM DTT, 5% ethylene glycol, 5% glycerol, BSA, 30 min on ice"}, "[8]": {"target": "T2, hMITF-sp", "experiment": "single-molecule fluorescence anisotropy; 300 mM KCl; Single-molecule: 0.5 nM DNA, 10 mM Tris pH 7.4, 0.1 mM EDTA, 165 or 300 mM KCl, 1 mM MgCl2, 143 mM 2-ME, 0.01% Tween-20, 0.1 mg/mL BSA. EMSA: 10 mM Hepes pH 7.9, 50 mM NaCl, 5 mM MgCl2, 0.1 mM EDTA, 2 mM DTT, 5% ethylene glycol, 5% glycerol, BSA, 30 min on ice"}, "[9]": {"target": "T3, hMITF-sl", "experiment": "single-molecule fluorescence anisotropy; 300 mM KCl; Single-molecule: 0.5 nM DNA, 10 mM Tris pH 7.4, 0.1 mM EDTA, 165 or 300 mM KCl, 1 mM MgCl2, 143 mM 2-ME, 0.01% Tween-20, 0.1 mg/mL BSA. EMSA: 10 mM Hepes pH 7.9, 50 mM NaCl, 5 mM MgCl2, 0.1 mM EDTA, 2 mM DTT, 5% ethylene glycol, 5% glycerol, BSA, 30 min on ice"}}, "data": [{"binder": "B1", "values": [{"measurement": "Kd", "setting": "[1]", "value": "4.5 ± 1.4", "unit": "nM"}, {"measurement": "Kd", "setting": "[2]", "value": "5.8 ± 3.5", "unit": "nM"}, {"measurement": "Kd", "setting": "[3]", "value": "3.1 ± 1.6", "unit": "nM"}, {"measurement": "Kd", "setting": "[4]", "value": "1.6 ± 1.4", "unit": "nM"}, {"measurement": "Kd", "setting": "[5]", "value": "1.7 ± 0.9", "unit": "nM"}, {"measurement": "Kd", "setting": "[6]", "value": "1.6 ± 0.5", "unit": "nM"}, {"measurement": "Kd", "setting": "[7]", "value": "1.9 ± 0.6", "unit": "nM"}, {"measurement": "Kd", "setting": "[8]", "value": "1 ± 0.4", "unit": "nM"}, {"measurement": "Kd", "setting": "[9]", "value": "0.9 ± 0.4", "unit": "nM"}]}]}
